The labels stand for the following.
B1: Twister Ribozyme (parent)
chain: AACACUGCCAAUGCCGGUCCCAAGCCCGGAUAAAAGUGGAGGGGGCGG

Our source for the self-cleavage values is the RNAGym collection of RNA variant scans (doi:10.7554/elife.80360).

This data set covers variants of B1. Nature of the data set: self-cleavage, relative activity (ratio to wild type); higher = more cleavage; co-transcriptional.
Regarding AACACUGCCAAUGCCGGUCCCAAGCCCGGAUAAUUGUGGAGGGGGCGG [A34U A35U], the self-cleavage came out at 0.841.
The figure for AACACUGCCAAUGCCGGUCCCAAGCCCGGAAAAAAGUGGAGGGGGCAG [U31A G47A] is 0.628.
For AACACAGCCAAUGCCGGUCCCAAGCCCGGAUAAAAGUGGACGGGGCGG [U6A G41C] the value was 0.182.
As to AACACUGCCAAUGCCGAUCCCAAGCCUGGAUAAAAGUGGAGGGGGCGG [G17A C27U], the self-cleavage worked out at 0.403.
The figure for AACAUUGCCUAUGCCGGUCCCAAGCCCGGAUAAAAGUGGAGGGGGCGG [C5U A10U] is 0.816.
For the variant AACACUGCCAAUGCCGGUCCCGAGCCCGGAUAAAAGUGGUGGGGGCGG [A22G A40U], the self-cleavage was determined as 0.138.
For AACACUGCCAAUACCGGGCCCAAGCCCGGAUAAAAGUGGAGGGGGCGG [G13A U18G] the value was 0.0757; for AACACUUCCAAUGCCGGUCCCAAGCCCGGAUAAAAGUGGAGGGGGCUG [G7U G47U], 0.0775.
In the case of AACACUGCCAAUGCCGGUCCCAAGCGCGGAUCAAAGUGGAGGGGGCGG [C26G A32C], the self-cleavage stood at 0.141.
The figure for AACACUGCCAAUGACGGUCCCAAGCCCGGAUAAACGUGGAGGGGGCGG [C14A A35C] is 0.863; for AACUCUGCCAAUGCCGGUCCCAAGCCCGGAUAAAAGUGGAGGGGCCGG [A4U G45C] it is 0.0951; for AACACUGCCAAUGCCGGUCCGAAGCCCGGAUAAAAGUGGAAGGGGCGG [C21G G41A] it is 0.159.
For AACACUGCCAGUGCCGGUCCCAAGCCCGGAUAAAAGUGGAGGGGUCGG [A11G G45U], the self-cleavage is 0.567.
The figure for AACACUGCCAAAGCCGUUCCCAAGCCCGGAUAAAAGUGGAGGGGGCGG [U12A G17U] is 0.41; for AACACUGCAAAUGUCGGUCCCAAGCCCGGAUAAAAGUGGAGGGGGCGG [C9A C14U] it is 0.697.
Turning to AACACUGCCAAUGACGGUCCCAAGCCCGGUUAAAAGUGGAGGGGGCGG [C14A A30U], the self-cleavage was found to be 0.968.
For AACACUGCCAAUGCUGGUCCCAAGGCCGGAUAAAAGUGGAGGGGGCGG [C15U C25G] the value was 0.414; for AACUCUGCCAAUGCCGGUCCCAAGCCCGGAGAAAAGUGGAGGGGGCGG [A4U U31G], 0.161.
In the case of AACACUGCCAAUGCCGGUCCCAAGACCGGAUAAAAGUCGAGGGGGCGG [C25A G38C], the self-cleavage was determined as 0.126.
In the case of AACACUGCGAAUGCCGGUCCCAAGCCCGGAUAAAAGUGGAGGGGGCGC [C9G G48C], the self-cleavage came out at 0.511.
The figure for AACACCGCCAAUGCCGGUCCCUAGCCCGGAUAAAAGUGGAGGGGGCGG [U6C A22U] is 0.141.
In the case of AACACUGCCAAUGCCGGUCCCAAGACCGGAUAAGAGUGGAGGGGGCGG [C25A A34G], the self-cleavage was 0.1.
As for AACACUGCCAAUGCCGGUCCCAAGACCGGAUAAAAGUGGAGCGGGCGG [C25A G42C], the self-cleavage came to 0.115.
AACACUGCCAAUGCCGGUCCCAAGCCCGGCUGAAAGUGGAGGGGGCGG [A30C A32G]: the self-cleavage was determined as 0.821.
For AACACUGCGAAUGCCGGUCCCAAGCUCGGAUAAAAGUGGAGGGGGCGG [C9G C26U] the value was 0.0719; for ACCACUGCCAAUGCCGGUCCCAAUCCCGGAUAAAAGUGGAGGGGGCGG [A2C G24U], 0.0478; for AACACUGCCAAUGCCGGUCACAAGCCCGGAUAAAAGUGGCGGGGGCGG [C20A A40C], 0.129.
For AACACUACCAAUGCCGGUCCUAAGCCCGGAUAAAAGUGGAGGGGGCGG [G7A C21U] the value was 0.103; for AACACUGCCAAUGCCAGUCCCAAGCCCGAAUAAAAGUGGAGGGGGCGG [G16A G29A], 0.639; for AACACUGCCAAUGCCGGUCCCAAGCCCGGAUAAAAGUCGAGGGAGCGG [G38C G44A], 0.826.
With AACUCUGCCAAUACCGGUCCCAAGCCCGGAUAAAAGUGGAGGGGGCGG [A4U G13A], the self-cleavage amounted to 0.0571.
For AACACUGCCAACGCCGGUCCCAAGCCCGGAUACAAGUGGAGGGGGCGG [U12C A33C] the value was 0.876; for AACACUGCCAAUUCCGGUCCCAACCCCGGAUAAAAGUGGAGGGGGCGG [G13U G24C], 0.0723; for AACACUGCCAAUGCCAGUCCCAAGCCCGGAUAAAAGUGGAGGGAGCGG [G16A G44A], 0.928.
The figure for AACACUGACAAUGCCGGUCCUAAGCCCGGAUAAAAGUGGAGGGGGCGG [C8A C21U] is 0.107.
As for AACACUGCAAAUGCCGGUCCCAAGCCCGGAUAAAAGUGGAGGGCGCGG [C9A G44C], the self-cleavage was determined as 0.425.
Regarding AACACUGCCAAUGACGGUCCCAAGCCCGGAUAAAAGUGGUGGGGGCGG [C14A A40U], the self-cleavage turned out to be 0.143.
The figure for AACACUGCCAACCCCGGUCCCAAGCCCGGAUAAAAGUGGAGGGGGCGG [U12C G13C] is 0.453; for AACACUGCCAAUGCCUGUCCCAAGCCCGGAUUAAAGUGGAGGGGGCGG [G16U A32U] it is 1; for AACACUACCAAUGCCGGUCCCAAGCCCGGAUAAAAGUGGAGGGGUCGG [G7A G45U] it is 0.177.
The figure for AACACUGCCAAUGCCCGUCCCAAGCCCGGAUAAAAGUCGAGGGGGCGG [G16C G38C] is 0.572; for AACACUUCCAAUGCAGGUCCCAAGCCCGGAUAAAAGUGGAGGGGGCGG [G7U C15A] it is 0.0847.
For AACACUGCCAAUUCCGGUCCCAAGCCCGGAUAAACGUGGAGGGGGCGG [G13U A35C] the value was 0.587; for AACACUGCCAAUGACGGUCCCAAGCCCGGAUAAAAGUCGAGGGGGCGG [C14A G38C], 0.861; for AACACUGCCAGUGCCGGUCCCAAGCCCGGAUAAAAGUGGAGUGGGCGG [A11G G42U], 0.411.
As for AAAACUGCCAAUGCCGGUCCCAAGCCCGGAUACAAGUGGAGGGGGCGG [C3A A33C], the self-cleavage stood at 0.147.
In the case of AGCACUGCCAAUGCCGGUCCCAAGCCCCGAUAAAAGUGGAGGGGGCGG [A2G G28C], the self-cleavage was determined as 0.241.
AGCACUGCCAAUGCCGGUCCCAAGCCCUGAUAAAAGUGGAGGGGGCGG [A2G G28U]: the self-cleavage stood at 0.286.
With AACACUGCAAAUGCCGGUCCCAAGCCCGGAAAAAAGUGGAGGGGGCGG [C9A U31A], the self-cleavage was determined as 0.72.
For AACACUGCCAAUGCCGGUCCCAAGCCCGGAUAGAAAUGGAGGGGGCGG [A33G G36A] the value was 0.509.
Turning to AACACAGCCAAUGCCGGUCCCAAGCGCGGAUAAAAGUGGAGGGGGCGG [U6A C26G], the self-cleavage stood at 0.132.
The figure for AACACUGCCAAUGCCGGUCCCAAGCCCGUAAAAAAGUGGAGGGGGCGG [G29U U31A] is 0.999; for AACACUGCCAAUGCCGGUCCCAUGCCCGGAUAAAAGUGGAGGCGGCGG [A23U G43C] it is 0.146.
Take AACACGGCCAAUGCCGGUCCCAAGCCCGGAUAAAAGUGGAGGUGGCGG [U6G G43U]: the self-cleavage is 0.184.
